T1: human beta klotho protein (soluble, used in Biacore) (human, UniProt Q86Z14 53-997, limits assumed)
T1 construct: also called HuKLB; huKLB
T1 sequence: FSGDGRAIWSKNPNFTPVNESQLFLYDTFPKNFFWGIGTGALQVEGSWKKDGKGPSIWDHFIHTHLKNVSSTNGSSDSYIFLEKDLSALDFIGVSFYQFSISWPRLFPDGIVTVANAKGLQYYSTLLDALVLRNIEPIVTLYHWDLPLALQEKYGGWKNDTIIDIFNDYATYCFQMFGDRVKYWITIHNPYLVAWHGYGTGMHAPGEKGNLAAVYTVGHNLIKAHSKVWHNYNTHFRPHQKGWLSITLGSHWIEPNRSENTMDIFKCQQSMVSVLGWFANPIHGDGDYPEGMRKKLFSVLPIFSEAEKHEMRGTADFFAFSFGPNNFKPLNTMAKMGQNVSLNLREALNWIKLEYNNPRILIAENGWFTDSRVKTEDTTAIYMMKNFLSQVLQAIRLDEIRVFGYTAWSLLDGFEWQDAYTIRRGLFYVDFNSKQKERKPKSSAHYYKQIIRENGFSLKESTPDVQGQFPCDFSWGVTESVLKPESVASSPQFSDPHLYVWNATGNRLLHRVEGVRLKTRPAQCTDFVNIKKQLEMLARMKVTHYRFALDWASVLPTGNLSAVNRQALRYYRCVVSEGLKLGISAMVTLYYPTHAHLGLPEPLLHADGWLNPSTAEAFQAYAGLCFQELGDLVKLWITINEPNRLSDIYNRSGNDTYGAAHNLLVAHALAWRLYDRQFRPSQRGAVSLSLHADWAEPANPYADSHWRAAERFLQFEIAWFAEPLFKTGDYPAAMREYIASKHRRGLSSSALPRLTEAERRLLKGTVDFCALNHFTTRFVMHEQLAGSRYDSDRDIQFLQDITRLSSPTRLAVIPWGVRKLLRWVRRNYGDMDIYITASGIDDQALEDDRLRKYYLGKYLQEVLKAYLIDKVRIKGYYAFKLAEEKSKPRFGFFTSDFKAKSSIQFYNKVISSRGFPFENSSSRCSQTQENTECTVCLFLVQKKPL


What was measured:
[1] = biological target: T2, human beta klotho / human FGFR1c receptor complex on cells (human, UniProt Q86Z14 1-1044; P11362 22-822); test: cell-based or functional assay
[2] = biological target: T1, human beta klotho protein (soluble, …); test: Biacore SPR, antibody captured on anti-mouse Fc, KLB as analyte (1.56-25 nM), 25 C
Description: Binding affinity measurements were also made in additional Biacore based assays. For example, equilibrium dissociation constant (KD) measurements were carried out with purified antibodies to evaluate their binding to human beta klotho and cyno beta klotho. As mentioned above, anti-mouse Fc antibody (Sigma-Aldrich, St. Louis, Mo.) was immobilized on all four flow cells of a CM5 chip using amine coupling reagents (GE Healthcare LifeSciences, Piscataway, N.J.). Purified antibodies were captured (˜100 RUs) on flow cells 2, 3 and 4 using flow cell 1 as a reference. This was followed by injection of different concentrations of human or cyno beta klotho (1.56 nM to 25 nM, two-fold dilutions in PBS-P buffer) at a flow rate of 70 μL/min and the binding kinetics were evaluated at 25° C.

[3] = biological target: cynomolgus beta klotho / human FGFR1c receptor complex on cells (cynomolgus monkey (Macaca …)); test: cell-based or functional assay
cynomolgus beta klotho / human FGFR1c receptor complex on cells (cynomolgus monkey (Macaca …)), sequence (chain, as listed by the source limits assumed, chain 1 of 2): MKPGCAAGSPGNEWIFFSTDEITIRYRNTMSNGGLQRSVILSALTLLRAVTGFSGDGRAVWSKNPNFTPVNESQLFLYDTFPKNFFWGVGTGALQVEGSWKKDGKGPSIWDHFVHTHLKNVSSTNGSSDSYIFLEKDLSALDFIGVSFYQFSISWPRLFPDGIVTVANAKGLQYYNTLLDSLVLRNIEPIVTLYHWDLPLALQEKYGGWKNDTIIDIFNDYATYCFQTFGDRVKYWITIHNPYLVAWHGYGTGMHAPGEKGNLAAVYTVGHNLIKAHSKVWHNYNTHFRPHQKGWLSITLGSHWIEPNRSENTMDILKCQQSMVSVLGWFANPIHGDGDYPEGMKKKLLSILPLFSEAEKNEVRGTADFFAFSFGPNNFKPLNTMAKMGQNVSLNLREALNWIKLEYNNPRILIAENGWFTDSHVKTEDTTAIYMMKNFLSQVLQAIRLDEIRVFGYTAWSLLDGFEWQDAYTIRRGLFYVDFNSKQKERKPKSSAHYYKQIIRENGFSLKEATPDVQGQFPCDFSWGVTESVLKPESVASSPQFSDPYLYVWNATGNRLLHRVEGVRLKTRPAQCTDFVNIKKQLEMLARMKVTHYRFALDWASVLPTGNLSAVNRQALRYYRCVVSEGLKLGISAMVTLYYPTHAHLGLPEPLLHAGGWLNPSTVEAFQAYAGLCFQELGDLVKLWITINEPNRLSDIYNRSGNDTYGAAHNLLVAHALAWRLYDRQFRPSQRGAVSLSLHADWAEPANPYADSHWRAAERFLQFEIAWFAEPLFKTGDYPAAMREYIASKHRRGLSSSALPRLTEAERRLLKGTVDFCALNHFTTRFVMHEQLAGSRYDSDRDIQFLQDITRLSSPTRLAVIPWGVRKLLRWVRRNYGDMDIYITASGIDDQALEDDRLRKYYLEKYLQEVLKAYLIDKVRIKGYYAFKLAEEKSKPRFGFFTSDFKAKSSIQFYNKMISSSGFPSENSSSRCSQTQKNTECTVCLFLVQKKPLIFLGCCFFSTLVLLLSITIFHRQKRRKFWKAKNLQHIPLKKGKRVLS
cynomolgus beta klotho / human FGFR1c receptor complex on cells (cynomolgus monkey (Macaca …)), sequence (chain, as listed by the source limits assumed, chain 2 of 2): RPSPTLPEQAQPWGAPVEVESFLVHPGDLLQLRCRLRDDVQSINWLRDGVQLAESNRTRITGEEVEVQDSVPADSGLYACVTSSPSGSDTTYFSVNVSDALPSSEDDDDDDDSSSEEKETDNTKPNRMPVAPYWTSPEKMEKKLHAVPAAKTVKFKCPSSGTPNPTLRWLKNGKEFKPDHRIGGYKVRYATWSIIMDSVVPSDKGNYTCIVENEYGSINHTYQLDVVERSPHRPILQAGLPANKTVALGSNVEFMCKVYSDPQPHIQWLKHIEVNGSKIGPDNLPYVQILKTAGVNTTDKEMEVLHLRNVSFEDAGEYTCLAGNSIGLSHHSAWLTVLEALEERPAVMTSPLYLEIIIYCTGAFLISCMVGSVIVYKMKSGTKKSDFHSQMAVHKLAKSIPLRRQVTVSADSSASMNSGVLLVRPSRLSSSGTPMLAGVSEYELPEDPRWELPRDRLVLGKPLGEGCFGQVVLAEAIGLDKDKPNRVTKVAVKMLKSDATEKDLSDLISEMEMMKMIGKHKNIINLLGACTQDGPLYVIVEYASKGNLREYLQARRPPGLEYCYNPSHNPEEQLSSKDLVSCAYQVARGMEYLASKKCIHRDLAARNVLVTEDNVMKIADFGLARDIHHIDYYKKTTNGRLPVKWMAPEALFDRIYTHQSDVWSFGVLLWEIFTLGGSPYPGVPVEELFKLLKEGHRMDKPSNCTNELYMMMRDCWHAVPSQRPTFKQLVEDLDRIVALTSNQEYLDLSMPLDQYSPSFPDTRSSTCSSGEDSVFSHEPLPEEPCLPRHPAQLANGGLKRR

[4] = biological target: T2, human beta klotho / human FGFR1c …; test: cell-based or functional assay; remark: listed apart in the source

Row | Binder | hAdip pERK assay EC50, Experiment - B [1] [nM] | Kd [2] [nM] | HEK293 cynoKLB/R1c reporter assay EC50, Experiment - A [3] [nM] | HEK293 cynoKLB/R1c reporter assay EC50, Experiment - B [3] [nM] | HEK293 huKLB/R1c reporter assay EC50, Experiment - A [4] [nM] | HEK293 huKLB/R1c reporter assay EC50, Experiment - B [4] [nM]
1 | antibody 1C17 (antibody, V domains shown, Murine monoclonal antibody) VH: QVQLQESGPGLVKPSQSLSLTCSVTGYSITSGYYWNWIRQFPGNKLEWMGYINYDGNSNYTPSLKNRISITRDTSKNQFFLKLNSVTPEDTATYYCARKGAYYSNYDSFDVWGTGTTVTVSS VL: DIKMTQSPSSMYASLGERVTITCKASQDINSYLSWVQQKPGKSPKTLIYRANRLVDGVPSRFSGSGSGQDYSLTISSLEYEDMGIYYCLQYDEFPFTFGSGTKLEIK | > 67 | 0.89 |  |  |  | 
2 | antibody 5F7 (antibody, V domains shown, Murine monoclonal antibody) VH: QVQPQESGPELVKPGALVKISCKASGYTFTRYDINWVKQRPGQGLEWIGWIYPGDISTKYNEKFKGKATLTADKSSSTAYMQLNSLTSENSAVYFCARSDYYGSRSFVYWGQGTLVTVSA VL: DIVLTQSPASLAVSLGQRATISCRASKSVSTSGYSYMHWYQQKPGQPPKLLIYLASNLESGVPARFSGSGSGTDFTLNIHPVEEEDAATYYCQHSRELPYTFGGGTKVEIK | > 67 | 1.7 |  |  |  | 
3 | antibody 5H23 (antibody, V domains shown, Murine monoclonal antibody from hybridoma; also called 5H23-Alexa647 (labelled form)) VH: QVQLQQSGPELVKPGALVKISCKASGYTFTSYDINWVKQRPGQGLEWIGWIYPGDGSTKYNEKFKGKATLTADKSSRTAYMQLSSLTSENSAVYFCARSDYYGSRSFAYWGQGTLVTVSA VL: DIVLTQSPASLAVSLGQRATISCRASKSVSTSGYVYMHWNQQKPGQPPKLLIYLASYLESGVPARFSGSGSGTDFTLNIHPVEEEDAAIYYCQHSRDLTFPFGGGTKLEIK | 1.66 |  | 0.165 | 0.218 | 0.102 | 0.0342
4 | antibody 4P5 (antibody, V domains shown, Murine monoclonal antibody) VH: QVQLQQSGPELVKPGALVKISCKASGYTFTRYDINWVKKRPGQGLEWIGWIYPGDDSTKYNEKFKGKATLTADKSSSTAYMQLSSLTSENSAVYFCARSDYYGSRSFVYWGQGTLVTVSA VL: DILLTQSPASLAVSLGQRATISCRASKSVSTSGYSYMHWYQQKPGQPPKLLIYLASNLESGVPARFSGRGSGTDFTLNIHPVEEEDAATYYCHHSGELPYTFGGGTKLEIK | 0.89 | 0.26 | 0.347 | 0.465 | 0.6 | 0.0783
5 | antibody 2L12 (antibody, V domains shown, Murine monoclonal antibody) VH: QVQLQQSGPELVKPGALVKISCKASGYTFTRYDINWVKKRPGQGLEWIGWIYPGDDSTKYNEKFKGKATLTADKSSSTAYMQLSSLTSENSAVYFCARSDYYGSRSFVYWGQGTLVTVSA VL: DIVLTQSPASLPVSLGQRATISCRASKSVSTSGYSYLHWYQQKPGQPPKLLIYLASNLESGVPARFSGSGSGTDFTLNIHPVEEEDAATYYCQHSGELPYTFGGGTKLEIK | 1.23 | 0.22 | 0.26 | 0.41 | 0.373 | 
6 | antibody 1D19 (antibody, V domains shown, Murine monoclonal antibody) VH: QVQPQESGPELVKPGALVKISCKASGYTFTRYDINWMKQRPGQGLEWIGWIYPGDSSTKFNENFKDKATLTADKSSSTAYMQLSSLTSENSTVYFCARSDYYGSRSFTYWGQGTLVTVSA VL: DIVLTQSPASLAVSLGQRATISCRASKSVSTSGYSYMHWYQQKPGQPPKLLIYLASNLESGVPARFSGSGSGTDFTLNIHPVEEEDAATYYCQHSRELPYTFGGGTKLEIK | > 67 | 1.25 |  | 0.954 | 0.62 | 
7 | antibody 3L3 (antibody, V domains shown, Murine monoclonal antibody) VH: QVQPQESGPELVKPGTLVKISCKASGYTFTSYDINWVKQRPGQGLEWIGWIYPGDGSPKYDEKFKGKATLTADKSSSTAYMQLSSLTSENSAVYFCARSDYYGSRSFVYWGQGTLVTVSA VL: DIVLTQSPASLAVSLGQRATISCRASKSVSTSGYSYVHWYQQKPGQPPKLLIYLASNLESGVPARFSGRGSGTDFTLNIHPVEEEDAATYYCQHSGELPYTFGGGTKLEIK | ~30 | 1.14 | 3.58 | 1.67 | 0.773 | 
8 | antibody 5C23 (antibody, V domains shown, Murine monoclonal antibody) VH: QVQPQESGPELVKPGALVKISCKASGYTFTRYDINWVKKRPGQGLEWIGWIYPGDGSTKYNEKFEGKATLTADKSSSTAYMQLSSLTSENSAVYFCARSDYYGSRSFVYWGQGTLVTVSA VL: DIVLTQSPDSLTVSLGQRATISCRASKSVSTSGYSYMHWYQQKPGQPPKLLIYLASNLESGVPARFSGSGSGTDFTLNIHPVEEEDAATYYCQHSRELPYTFGGGTKLEIK | > 67 | 1.2 |  |  |  | 
9 | antibody 3N20 (antibody, V domains shown, Murine monoclonal antibody) VH: QVQLQESGAELARPGASVKLSCKVSGYIFTNYGISWVKQRTGQGLEWIGEIYPRSGNTYYNEKFKGKATLTADMSSSTAYMDLRSLTSEDSAVYFCARHWDGVLDYFDYWGQGTSLTVSS VL: DIVMTQSPSSLSVSAGEKVTMSCKSSQSLLNSGNQKNYLAWYQQKPGQPPKLLIYGASTRESGVPDRFTGSGSGTDFTLTISSVQAEDLAVYYCLNDHSYPFTFGAGTKLELK | > 67 | 3.3 | 2.46 | > 10 | 0.527 | 
